Measurements reported in article PMC3295402 (Journal of Experimental Botany, 2012).

Legend:
[1] = biological target: cryptogein (wt cryptogein, Cry) (Phytophthora cryptogea, UniProt P15570, L61F); assay: biochemical
[2] = biological target: cryptogein (wt cryptogein, Cry) (Phytophthora cryptogea, UniProt P15570); assay: biochemical
[3] = biological target: high-affinity binding site on the tobacco plasma membrane (tobacco (endogenous in Xanthi cell suspension)); assay: filter binding of FITC-labelled ligand to plasma membrane preparations

Row | amount of bound molecules at 10 nM (pmol mg^−1 plasma membrane proteins) [3] | amount of bound molecules at 30 nM (pmol mg^−1 plasma membrane proteins) [3] | Molecule | also measured
1 | – | – | CC(C)[C@@H](C)/C=C/[C@@H](C)[C@H]1CC[C@H]2C3=CC=C4C[C@@H](O)CC[C@]4(C)C3=CC[C@]12C [DHE] | Kd [1]: 850 ± 50 nM; Kd [2]: 560 ± 40 nM
2 | 57.4 | – | wild type (wt) cryptogein (ligand, fluorescein isothiocyanate (FITC) label, site not stated) GTACTATQQTAAYKTLVSILSDASFNQCSTDSGYSMLTAKALPTTAQYKLMCASTACNTMIKKIVTLNPPNCDLTVPTSGLVLNVYSYANGFSNKCSSL | –
3 | 55.3 | – | cryptogein Val84Phe mutant (ligand, fluorescein isothiocyanate (FITC) label, site not stated) GTACTATQQTAAYKTLVSILSDASFNQCSTDSGYSMLTAKALPTTAQYKLMCASTACNTMIKKIFTLNPPNCDLTVPTSGLVLNVYSYANGFSNKCSSL | –
4 | – | 16.9 | cryptogein Leu41Phe/Val84Phe double mutant (ligand, fluorescein isothiocyanate (FITC) label, site not stated) GTACTATQQTAAYKTLVSILSDASFNQCSTDSGYSMLTAKAFPTTAQYKLMCASTACNTMIKKIVTLNPPNCDLTVPTSGLVLNFYSYANGFSNKCSSL | –
5 | – | 14.4 | cryptogein Leu41Phe mutant (ligand, fluorescein isothiocyanate (FITC) label, site not stated) GTACTATQQTAAYKTLVSILSDASFNQCSTDSGYSMLTAKAFPTTAQYKLMCASTACNTMIKKIVTLNPPNCDLTVPTSGLVLNVYSYANGFSNKCSSL | –
